Experimental findings from patent US20130189714A1, “METHOD FOR THE DETECTION AND/OR QUANTIFICATION OF THE INTERACTION OF PLATELETS WITH INTERACTION PARTNERS” (SANOFI, priority 2010, published 2013) are described below.

The target in test [1] is collagen receptor on live human platelets (human). The test can be described thus: platelet adhesion to rat tail collagen 1 coated wells vs BSA, 6 plates under automated conditions, Acumen cytometry.
The target in test [2] is platelet glycoprotein GpIb alpha (CD42b antigen), on live human platelets (human) (UniProt P07359). Briefly: platelet adhesion to vWF-A1 coated wells, AK2 at 2 ug/ml, Acumen cytometry.
For test [3] the target is unchanged. Briefly: platelet adhesion to vWF-A1 coated wells vs BSA-coated wells, optimized washer settings, Acumen cytometry.
Test [4] has the same target. The test can be described thus: platelet adhesion to vWF-A1 coated wells vs BSA, automated run of 30 plates, Acumen cytometry.
For test [5] the target is unchanged. Briefly: platelet adhesion to coated wells, optimized wash program, Acumen cytometry; reference BSA-coated wells.

Sequence of platelet glycoprotein GpIb alpha (CD42b antigen), on live human platelets (human) (P07359 17-652): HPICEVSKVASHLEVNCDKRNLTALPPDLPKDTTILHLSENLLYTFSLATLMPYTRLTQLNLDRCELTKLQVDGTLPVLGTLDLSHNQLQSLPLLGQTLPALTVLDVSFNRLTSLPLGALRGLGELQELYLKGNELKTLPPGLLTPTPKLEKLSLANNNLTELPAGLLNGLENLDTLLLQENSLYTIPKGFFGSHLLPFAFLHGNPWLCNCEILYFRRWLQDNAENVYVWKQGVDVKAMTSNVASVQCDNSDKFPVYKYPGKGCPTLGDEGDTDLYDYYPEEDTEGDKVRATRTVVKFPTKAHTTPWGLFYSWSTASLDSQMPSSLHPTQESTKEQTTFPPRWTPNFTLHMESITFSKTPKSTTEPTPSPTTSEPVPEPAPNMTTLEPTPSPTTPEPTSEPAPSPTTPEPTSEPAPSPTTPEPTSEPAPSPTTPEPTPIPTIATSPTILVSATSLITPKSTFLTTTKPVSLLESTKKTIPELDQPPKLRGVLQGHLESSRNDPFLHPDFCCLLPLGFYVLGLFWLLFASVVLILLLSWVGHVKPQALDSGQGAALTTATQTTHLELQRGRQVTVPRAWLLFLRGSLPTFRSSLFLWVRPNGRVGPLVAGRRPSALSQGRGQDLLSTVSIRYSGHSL
Sequence of vWF-A1 (von Willebrand factor A1 domain, Aa 475-706), His-tagged recombinant protein (ligand) (chain): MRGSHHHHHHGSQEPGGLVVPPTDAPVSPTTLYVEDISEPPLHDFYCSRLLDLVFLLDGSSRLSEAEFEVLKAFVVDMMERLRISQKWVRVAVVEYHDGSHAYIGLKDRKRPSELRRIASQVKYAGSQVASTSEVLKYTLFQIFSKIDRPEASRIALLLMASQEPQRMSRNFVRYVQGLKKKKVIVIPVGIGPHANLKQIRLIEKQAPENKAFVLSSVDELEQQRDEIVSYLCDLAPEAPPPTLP

Consider “Collagen I (rat tail, SIGMA C8897) (from UniProt P02454 152-1207; P02466 86-1125) (ligand)”, for which, in test [1], the S/B was 20 fold. For the substance “Mouse anti-human CD42b monoclonal antibody, clone AK2 (Chemicon international, catalog No. CBL166)”, the % inhibition of platelet adhesion in test [2] was determined as 90%. In the case of “vWF-A1 (von Willebrand factor A1 domain, Aa 475-706), His-tagged recombinant protein (ligand)”, the values for the S/B in test [3] and in test [4] were 78 fold and 20 fold, respectively. Moreover, the S/B (number platelets attached to vWF-A1 vs BSA) in test [5] was found to be 70 fold.
